From article PMC3515690 (Nature structural & molecular biology, 2012)

Key:
Test in all cases: cross-linking
Atg7 V285D = target: T1, Atg7 V285D (S. cerevisiae, UniProt P38862 1-630, V285D)
T1 sequence (looked up): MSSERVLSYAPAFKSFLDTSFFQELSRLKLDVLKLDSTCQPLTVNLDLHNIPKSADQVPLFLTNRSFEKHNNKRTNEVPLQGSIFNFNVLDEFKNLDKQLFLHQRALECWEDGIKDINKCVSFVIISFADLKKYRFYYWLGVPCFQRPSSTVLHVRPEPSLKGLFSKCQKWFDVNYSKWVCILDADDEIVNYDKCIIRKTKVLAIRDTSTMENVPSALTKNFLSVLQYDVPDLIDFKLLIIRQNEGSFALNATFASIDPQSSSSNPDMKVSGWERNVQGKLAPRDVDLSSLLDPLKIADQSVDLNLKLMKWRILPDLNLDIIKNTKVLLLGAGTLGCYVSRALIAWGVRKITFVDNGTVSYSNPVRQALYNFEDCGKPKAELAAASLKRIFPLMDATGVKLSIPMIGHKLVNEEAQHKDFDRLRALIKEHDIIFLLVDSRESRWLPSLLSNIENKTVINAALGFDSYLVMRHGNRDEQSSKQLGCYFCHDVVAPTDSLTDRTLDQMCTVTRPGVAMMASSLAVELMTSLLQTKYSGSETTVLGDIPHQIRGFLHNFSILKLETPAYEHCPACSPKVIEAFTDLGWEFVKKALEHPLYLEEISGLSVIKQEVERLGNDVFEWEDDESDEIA

[1] = target: T2, Atg7 with residues 290–294 deleted (S. cerevisiae, UniProt P38862 1-630, deletion of residues 290–294)
T2 sequence (looked up): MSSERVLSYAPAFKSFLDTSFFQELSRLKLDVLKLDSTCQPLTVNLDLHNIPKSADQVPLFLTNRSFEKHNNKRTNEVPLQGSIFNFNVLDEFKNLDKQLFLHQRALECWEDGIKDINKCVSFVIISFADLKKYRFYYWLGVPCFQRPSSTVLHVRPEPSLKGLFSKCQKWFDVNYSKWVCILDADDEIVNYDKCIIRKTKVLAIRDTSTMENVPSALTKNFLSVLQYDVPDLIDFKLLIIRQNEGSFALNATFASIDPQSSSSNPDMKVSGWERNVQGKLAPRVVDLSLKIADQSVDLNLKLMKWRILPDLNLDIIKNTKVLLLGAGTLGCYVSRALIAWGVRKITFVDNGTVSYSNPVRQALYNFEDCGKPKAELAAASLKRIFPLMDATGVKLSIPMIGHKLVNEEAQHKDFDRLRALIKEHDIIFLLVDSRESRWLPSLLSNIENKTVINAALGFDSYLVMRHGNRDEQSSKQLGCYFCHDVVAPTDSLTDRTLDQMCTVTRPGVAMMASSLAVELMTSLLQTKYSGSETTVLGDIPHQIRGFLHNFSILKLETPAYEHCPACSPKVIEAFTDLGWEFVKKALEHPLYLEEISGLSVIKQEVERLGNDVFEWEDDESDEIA

[2] = target: T3, Atg7 with a Gly-Gly-Ser-Gly insertion after Leu291 (S. cerevisiae, UniProt P38862 1-630, Gly-Gly-Ser-Gly insertion after Atg7’s Leu291)
T3 sequence (looked up): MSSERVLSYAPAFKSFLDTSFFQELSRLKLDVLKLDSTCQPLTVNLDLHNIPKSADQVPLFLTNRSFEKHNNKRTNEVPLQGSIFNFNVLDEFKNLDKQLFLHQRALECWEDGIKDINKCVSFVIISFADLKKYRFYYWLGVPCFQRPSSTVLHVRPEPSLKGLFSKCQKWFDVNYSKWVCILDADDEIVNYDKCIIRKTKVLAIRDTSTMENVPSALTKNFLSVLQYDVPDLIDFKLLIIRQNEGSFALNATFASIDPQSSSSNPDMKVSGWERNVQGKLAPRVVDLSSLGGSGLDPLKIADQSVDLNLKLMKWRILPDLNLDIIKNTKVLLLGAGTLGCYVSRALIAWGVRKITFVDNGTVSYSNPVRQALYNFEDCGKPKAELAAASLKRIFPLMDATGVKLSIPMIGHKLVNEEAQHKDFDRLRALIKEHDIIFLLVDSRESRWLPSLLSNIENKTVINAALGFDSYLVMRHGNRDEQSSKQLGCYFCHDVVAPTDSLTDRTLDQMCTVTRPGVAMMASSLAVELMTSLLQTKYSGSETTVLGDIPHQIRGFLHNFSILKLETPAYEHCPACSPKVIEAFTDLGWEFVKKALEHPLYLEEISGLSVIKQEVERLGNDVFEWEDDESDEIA

binding result (Atg7 V285D): binds | binding result [1]: binds | binding result [2]: binds
B1: Atg3(C41A C76A C83A) (enzyme, S. cerevisiae)
chain: MIRSTLSSWREYLTPITHKSTFLTTGQITPEEFVQAGDYLAHMFPTWKWNEESSDISYRDFLPKNKQFLIIRKVPADKRAEQAVEVEGPDVIMKGFAEDGDEDDVLEYIGSETEHVQSTPAGGTKDSSIDDIDELIQDMEIKEEDENDDTEEFNAKGGLAKDMAQERYYDLYIAYSTSYRVPKMYIVGFNSNGSPLSPEQMFEDISADYRTKTATIEKLPFYKNSVLSVSIHPCKHANVMKILLDKVRVVRQRRRKELQEEQELDGVGDWEDLQDDIDDSLRVDQYLIVFLKFITSVTPSIQHDYTMEGW
modifications: Cys234 reacted with bismaleimidoethane (BMOE)
